Where two headings read alike, the source gives them in different places.

Data set [1] concerns the target T1, Dmc1;Mei5-Sae3 complex (Saccharomyces cerevisiae;Saccharomyces cerevisiae) (UniProt P25453+P32489+P89114).
T1 sequence 1: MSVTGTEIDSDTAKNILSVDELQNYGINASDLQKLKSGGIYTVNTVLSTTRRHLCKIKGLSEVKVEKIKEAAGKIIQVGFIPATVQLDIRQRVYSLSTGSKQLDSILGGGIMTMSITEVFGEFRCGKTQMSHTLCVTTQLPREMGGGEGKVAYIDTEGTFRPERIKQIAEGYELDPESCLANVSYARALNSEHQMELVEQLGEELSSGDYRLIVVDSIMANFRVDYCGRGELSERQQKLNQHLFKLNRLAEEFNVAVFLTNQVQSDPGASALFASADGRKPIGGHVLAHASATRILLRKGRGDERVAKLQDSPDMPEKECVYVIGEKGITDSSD
T1 sequence 2: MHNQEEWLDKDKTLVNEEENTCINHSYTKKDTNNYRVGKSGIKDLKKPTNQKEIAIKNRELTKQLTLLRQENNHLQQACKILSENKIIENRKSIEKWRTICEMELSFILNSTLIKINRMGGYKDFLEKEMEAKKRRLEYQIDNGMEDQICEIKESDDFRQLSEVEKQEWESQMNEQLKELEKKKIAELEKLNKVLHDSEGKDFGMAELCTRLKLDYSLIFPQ
T1 sequence 3: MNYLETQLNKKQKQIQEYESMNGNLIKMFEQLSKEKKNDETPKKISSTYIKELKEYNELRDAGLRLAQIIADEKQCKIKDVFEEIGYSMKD
Kind of data set: smFRET + GFP colocalization. The settings on record: internal Cy3 between T12 and T21.

The target of data set [2] is T2, Dmc1 (Saccharomyces cerevisiae) (UniProt P25453).
T2 sequence: T1 sequence 1
Kind of data set: smFRET, RPA displacement. The settings on record: internal Cy3 between T12 and T18.

The target of data set [3] is T3, RPA (Saccharomyces cerevisiae, UniProt P22336;P26754;P26755 1-621;1-273;1-122). As to the kind of experiment: smFRET.
T3 sequence (P22336 whole entry, chain 1 of 3): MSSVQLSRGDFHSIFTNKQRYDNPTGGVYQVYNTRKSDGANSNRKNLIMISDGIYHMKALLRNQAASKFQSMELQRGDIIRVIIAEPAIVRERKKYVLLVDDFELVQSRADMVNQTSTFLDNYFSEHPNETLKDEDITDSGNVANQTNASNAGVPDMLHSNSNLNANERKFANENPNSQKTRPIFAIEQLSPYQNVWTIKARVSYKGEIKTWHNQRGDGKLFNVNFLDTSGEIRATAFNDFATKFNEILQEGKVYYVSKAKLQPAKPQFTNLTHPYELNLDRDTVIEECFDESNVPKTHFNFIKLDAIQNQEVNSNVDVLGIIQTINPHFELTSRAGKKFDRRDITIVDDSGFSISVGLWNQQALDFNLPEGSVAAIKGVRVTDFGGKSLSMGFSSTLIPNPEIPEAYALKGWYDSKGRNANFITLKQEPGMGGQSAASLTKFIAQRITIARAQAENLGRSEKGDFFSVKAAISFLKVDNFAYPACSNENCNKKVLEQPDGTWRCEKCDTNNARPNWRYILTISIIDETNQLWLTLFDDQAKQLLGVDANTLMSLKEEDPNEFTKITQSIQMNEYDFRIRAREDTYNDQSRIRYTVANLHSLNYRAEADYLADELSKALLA
T3 sequence (P26754 whole entry, chain 2 of 3): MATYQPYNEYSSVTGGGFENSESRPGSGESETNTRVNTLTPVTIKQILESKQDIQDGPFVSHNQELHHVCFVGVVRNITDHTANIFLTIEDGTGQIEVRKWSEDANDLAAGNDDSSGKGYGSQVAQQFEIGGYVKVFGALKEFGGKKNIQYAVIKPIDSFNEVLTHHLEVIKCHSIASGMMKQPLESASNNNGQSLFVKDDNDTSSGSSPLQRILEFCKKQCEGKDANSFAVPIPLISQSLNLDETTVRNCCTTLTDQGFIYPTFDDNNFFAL
T3 sequence (P26755 whole entry, chain 3 of 3): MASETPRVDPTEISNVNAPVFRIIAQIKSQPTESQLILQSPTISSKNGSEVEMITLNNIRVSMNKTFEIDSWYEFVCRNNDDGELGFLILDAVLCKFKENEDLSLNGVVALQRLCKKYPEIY
In data set [4] the target is T4, Dmc1 (Saccharomyces cerevisiae, UniProt P25453 1-334).
T4 sequence: T1 sequence 1
Kind of data set: smFRET.

Data set [5] deals with T5, Dmc1;Mei5-Sae3 complex (Saccharomyces cerevisiae;Saccharomyces …, UniProt P25453;P32489;P89114 1-334;1-222;1-91, |).
T5 sequence 1: T1 sequence 1
T5 sequence 2: T1 sequence 2
T5 sequence 3: T1 sequence 3
As to the kind of experiment: nuclease protection.

The target of data set [6] is RPA-GFP (Rfa2-eGFP) (Saccharomyces cerevisiae, UniProt P22336;P26754;P26755 1-621;1-273;1-122). As to the kind of experiment: EMSA. For orientation: Mobility shift assays separate free from complexed probe on a gel.
Chain of RPA-GFP (Rfa2-eGFP) (P22336 whole entry, chain 1 of 3): as the sequence (P22336 whole entry, chain 1 of 3) above
Chain of RPA-GFP (Rfa2-eGFP) (P26754 whole entry, chain 2 of 3): as the sequence (P26754 whole entry, chain 2 of 3) above
Chain of RPA-GFP (Rfa2-eGFP) (P26755 whole entry, chain 3 of 3): as the sequence (P26755 whole entry, chain 3 of 3) above
The target in data set [7] is T3, RPA. As to the kind of experiment: EMSA.
In data set [8] the target is T5, Dmc1;Mei5-Sae3 complex. Kind of data set: smFRET.
For data set [9], the target named is T4, Dmc1. Kind of data set: smFRET. The source holds these as a separate data set.

Take “TGGCGACGGCAGCGAGGCTTTTTTTTTTTTTTTTTTTTTTTTTTTTTTTTT / GCCTCGCTGCCGTCGCCA [dT12+21]”: the binding signal (% RPA displaced) in data set [1] turned out to be 50.

“TGGCGACGGCAGCGAGGCTTTTTTTTTTTTTTTTTTTTTTTTTTTTTT / GCCTCGCTGCCGTCGCCA [dT12+18]”: the Kd (usually a measure of binding affinity in units of concentration) in [2] is 1900 nM.

B1: dT9 (mixed)
DNA 1: TGGCGAGCAGCGAGGCTTTTTTTTT
DNA 2: GCCTCGCTGCCGTCGCCA
In the case of B1, in [3], the binding result was “binds”. Further, in [4], the Kd was determined as 1400 ± 39 nM.

B2: Oligo 1 (80-mer) (ssDNA)
DNA: TTATGTTCATTTTTTATATCCTTTACTTTATTTTCTCTGTTTATTCATTTACTTATTTTGTATTATCCTTATCTTATTTA
For B2, the binding result in data set [5] is given as “binds”.

B3: Oligo 4 (90-mer) (ssDNA)
DNA: AAATCAATCTAAAGTATATATGAGTAAACTTGGTCTGACAGTTACCAATGCTTAATCAGTGAGGCACCTATCTCAGCGATCTGTCTATTT
Turning to B3, the binding result in data set [6] and in data set [7] was “binds” in each case.

B4: dT13 (mixed)
DNA 1: TGGCGACGGCAGCGAGGCTTTTTTTTTTTTT
DNA 2: GCCTCGCTGCCGTCGCCA
Regarding B4, the binding result in [8] is given as “binds”.

B5: dT7 (mixed)
DNA 1: TGGCGACGCAGCGAGGCTTTTTTT
DNA 2: GCCTCGCTGCCGTCGCCA
In the case of B5, in [9], the Kd came to 1720 ± 77 nM.

(Values after paper PMC11514449.)
